Molecular target: Myc-tagged metabotropic glutamate receptor 5 (Myc-mGluR5) (UniProt P41594)
Assay: co-IP

UniProt P41594, sequence (P41594 21-1212): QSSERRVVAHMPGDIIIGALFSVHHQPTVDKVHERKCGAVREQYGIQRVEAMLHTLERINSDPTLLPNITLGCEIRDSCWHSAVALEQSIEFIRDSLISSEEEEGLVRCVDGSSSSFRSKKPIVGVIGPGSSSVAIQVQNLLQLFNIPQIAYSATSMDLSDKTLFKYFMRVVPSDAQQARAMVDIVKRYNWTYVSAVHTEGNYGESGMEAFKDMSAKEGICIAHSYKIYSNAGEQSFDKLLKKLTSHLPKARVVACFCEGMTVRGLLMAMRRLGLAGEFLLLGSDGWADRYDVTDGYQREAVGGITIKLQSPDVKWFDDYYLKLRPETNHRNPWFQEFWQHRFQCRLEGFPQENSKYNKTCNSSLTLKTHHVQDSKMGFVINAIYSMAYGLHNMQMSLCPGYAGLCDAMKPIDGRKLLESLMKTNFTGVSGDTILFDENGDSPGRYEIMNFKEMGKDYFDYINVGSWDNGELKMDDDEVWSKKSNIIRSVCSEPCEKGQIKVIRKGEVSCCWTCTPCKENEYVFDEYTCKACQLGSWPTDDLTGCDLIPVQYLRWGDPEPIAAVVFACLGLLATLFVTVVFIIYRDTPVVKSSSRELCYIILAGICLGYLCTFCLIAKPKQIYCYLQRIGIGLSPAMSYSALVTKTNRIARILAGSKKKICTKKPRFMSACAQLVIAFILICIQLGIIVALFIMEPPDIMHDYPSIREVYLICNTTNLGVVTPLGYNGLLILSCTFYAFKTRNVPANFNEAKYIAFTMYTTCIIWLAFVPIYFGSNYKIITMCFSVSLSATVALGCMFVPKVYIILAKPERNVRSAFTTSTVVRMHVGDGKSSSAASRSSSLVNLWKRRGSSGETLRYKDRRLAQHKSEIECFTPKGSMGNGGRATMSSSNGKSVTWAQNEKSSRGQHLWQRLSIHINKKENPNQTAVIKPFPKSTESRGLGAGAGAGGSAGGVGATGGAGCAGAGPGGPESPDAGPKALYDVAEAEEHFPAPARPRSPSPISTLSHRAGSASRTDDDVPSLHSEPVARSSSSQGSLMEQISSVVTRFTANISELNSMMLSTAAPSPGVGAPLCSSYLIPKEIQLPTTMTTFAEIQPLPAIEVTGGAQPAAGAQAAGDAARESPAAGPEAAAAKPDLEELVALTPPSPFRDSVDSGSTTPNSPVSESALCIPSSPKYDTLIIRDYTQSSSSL

## cellular prion protein (PrP^C) (from UniProt P04156 23-230) (natural protein)
  fold increase of the co-immunoprecipitate with Aβo against without Aβo: > 2 fold
